Laboratory results reported in patent publication US20230242671A1 (Eli Lilly, published 2023).

Experiments:
[1] = target: T1, CaptureSelect Kappa XL ligand; experiment: CaptureSelect Kappa XL affinity column after Protein A
T1 construct: also called Biotin-KappaXL; Kappa XL column
Excerpt: Multispecific binding proteins of the present disclosure, in clarified medium or recovered from Protein A purification, may be subjected to a second purification step using a CaptureSelect™ Kappa XL (Thermo Fisher Cat. #494321001) pre-packed affinity column. Briefly, multispecific binding proteins of the present disclosure recovered from Protein A purification are subjected to a Kappa XL affinity column which has been equilibrated with a compatible buffer, such as phosphate buffered saline (PBS) at pH 7.4. The column is then washed to remove nonspecific binding components. The bound multispecific binding protein is eluted, for example, by pH gradient (such as 20 mM Tris buffer pH 7.0 to 10 mM sodium citrate buffer pH 3.0). Binding protein fractions are detected, such as by UV absorbance or SDS-PAGE, and then are pooled.
Percent flow through (% F T) and percent elution of exemplified heteromabs of the present disclosure following kappa XL column purification essentially as described herein is assessed. Briefly, various antibody formats (as set forth in Table 3) are subjected to Kappa XL column. Flow through material is considered to comprise of impurities, such as homodimers, or misassembled antibodies, whereas the Kappa XL ligand bound material (elution material) is considered to be the correctly assembled bispecific antibody.

[2] = target: T1, CaptureSelect Kappa XL ligand; experiment: ELISA, antibody titrated on goat anti-human-IgG, Biotin-KappaXL at 1 ug/ml
Experimental: Binding of the light chain Fab region formats of Table 1a for exemplified IgG hetermabs to Kappa XL ligand may be assessed via ELISA. Briefly, 96-well flat bottom ELISA plates are coated with 2 ug/mL goat anti-human-IgG protein at 100 ul/well and incubated overnight at 4° C. The following day, plates are washed 3× with wash buffer (0.05% PBS-Tween 20) and blocked for 1 hr with blocking buffer (casein, 200 μL/well) at room temperature (RT). Plates are washed 3× with wash buffer, and binding proteins (as shown in Table 5) are added at 10 μg/mL and serially diluted at 1:3 at 100 uL/well in DPBS (Dulbecco's HyClone). Plates are incubated at RT for 1 hr, are washed 3× with wash buffer and Biotin-KappaXL is added at 1 ug/ml at 100 uL/well. Plates are then incubated for 1 hr at RT, washed 3×, and 100 uL/well of SA-AP is added to each well and incubated 30 min at RT. Plates are then washed 3×, and 100 uL/well PNAP substrate is added. Reactions are stopped and the optical density is measured using a colorimetric microplate reader set to 405 nm.

[3] = target: T2, Protein A (UniProt P38507 37-327, biotin (site not stated)); experiment: ELISA, antibody titrated on goat anti-human-kappa, Biotin-Protein A at 0.5 ug/ml
T2 construct: Reagent; also called Biotin-Protein A; Protein A ligand
Experimental: Binding of the heavy chain Fc region formats of Table 1b for exemplified IgG heteromabs to Protein A ligand may be assessed via ELISA. Briefly, 96-well flat bottom Elisa plates are coated with 2 ug/mL goat anti-human-kappa protein at 100 ul/well and incubated overnight at 4° C. The following day, plates are washed 3× with wash buffer 0.05% PBS-Tween 20 (PBS-T)) and blocked for 1 hr with blocking buffer (casein, 200 µL/well) at room temperature (RT). Plates are washed 3× with wash buffer, and binding proteins (as shown in Table 4) are added to individual wells at 10 μg/mL and serially diluted 1:3, at a volume of 100 uL/well in PBS-T. Plates are incubated at RT for 1 hr, and washed 3× with wash buffer. Biotin-Protein A at 0.5 ug/ml is added at 100 uL/well and plates are incubated for 1 hr at RT, washed 3×, and 100 uL/well of streptavidin labeled alkaline phosphatase (SA-AP) is added to each well. Plates are incubated 30 min at RT. Plates are then washed 3×, and 100 uL/well of p-Nitrophenyl Phosphate, Disodium Salt (PNAP)(Thermo Fisher Scientific) substrate is added. Reactions are stopped and optical density is measured using a colorimetric microplate reader set to 405 nm.

B1: cMet-BAH10 parental IgG1 heteromab (bispecific antibody)
heavy 1: EVQLVESGGGLVQPGGSLRLSCAASGYTFTSYWLHWVRKAPGKGLEWVGMIDPSNSDTRFNPEFKDRFTISADTSKNTAYLQMNSLRAEDTAVYYCATYRSYVTPLDYWGQGTLVTVSSASTKGPSVFPLAPSSKSTSGGTAALGCLVKDYFPEPVTVSWNSGALTSGVATGPAVLQSSGLYSLSSVVTVPSSSLGTQTYICNVNHKPSNTKVDKKVEPKSCDKTHTCPPCPAPEAAGGPSVFLFPPKPKDTLMISRTPEVTCVVVDVSHEDPEVKFNWYVDGVEVHNAKTKPREEQYNSTYRVVSVLTVLHQDWLNGKEYKCKVSNKALPAPIEKTISKAKGQPREPQVYTLPPSREEMTDNQVSLTCLVKGFYPSDIAVEWESNGQPENNYKTTPPVLMSDGSFFLASKLTVDKSRWQQGNVFSCSVMHEALHNHYTQKSLSLSPGK
light 1: RIQMTQSPSSLSASVGDRVTITCKSSQSLLYTSSQKNYLAWYQDKPGKAPKLLIYWASTRESGVPSRFSGSGSGTDFTLTISSLQPEDFATYYCQQYYAYPWTFGQGTKVEIKRTVAAPSVFIFPPSDEQLKSGTASVVCYLNNFYPREAKVQWKVDNALQSGNSQESVTEQDSKDSTYSLWSTLTLSKADYEKHKVYACEVTHQGLSSPVTKSFNRGEC
heavy 2: QVQLVQSGAEVKKPGSSVKVSCKASGYTFTTYYLHWVRYAPGQGLEWMGWIYPGNVHAQYNEKFKGRVTITADKSTSTAYMELSSLRSEDTAVYYCARSWEGFPYWGRGTTVTVSSASTKGPSVFPLAPCSKSTSGGTAALGCLVKDYFPEPVTVSWNSGALTSGVHTFPAVLQSSGLYSLSSVVTVPSSSLGTQTYICNVNHKPSNTKVDKKVEPDSGDKTHTCPPCPAPEAAGGPSVFLFPPKPKDTLMISRTPEVTCVVVDVSHEDPEVKFNWYVDGVEVHNAKTKPREEQYNSTYRVVSVLTVLHQDWLNGKEYKCKVSNKALPAPIEKTISKAKGQPRRPRVYTLPPSREEMTKNQVSLVCLVKGFYPSDIAVEWESNGQPENNYKTTPPVLDSDGSFFLYSVLTVDKSRWQQGNVFSCSVMHEALHNHYTQKSLSLSPGK
light 2: DIQMTQSPSSLSASVGDRVTITCKASQNVGINVAWYQRKPGDAPKSLISSASYRYSGVPSRFSGSGSGTDFTLTISSLQPEDFATYFCQQYDTYPFTFGQGTKVEIKRTVAAPSVFIFPPSKEQLKSGTASVVCLLNNFYPREAKVQWKVDNALQSGNSQESVTEQDSKDSTYSLSSTLTLSKADYEKHKVYACEVTHQGLSSPVTKSFNRGEC
notes: control; also called cMet-BAH10 IgG1 heteromab; cMet-BAH10 IgG heteromab
% Elution [1]: 94.5% | % Flow Through (FT) [1]: 5.5% | EC50 [2]: 0.57 nM | EC50 [3]: 0.48 nM
